B1: RIN1 (protein, UniProt Q13671 1-783, looked up)
Ras and Rab interactor 1: MESPGESGAGSPGAPSPSSFTTGHLAREKPAQDPLYDVPNASGGQAGGPQRPGRVVSLRERLLLTRPVWLQLQANAAAALHMLRTEPPGTFLVRKSNTRQCQALCMRLPEASGPSFVSSHYILESPGGVSLEGSELMFPDLVQLICAYCHTRDILLLPLQLPRAIHHAATHKELEAISHLGIEFWSSSLNIKAQRGPAGGPVLPQLKARSPQELDQGTGAALCFFNPLFPGDLGPTKREKFKRSFKVRVSTETSSPLSPPAVPPPPVPVLPGAVPSQTERLPPCQLLRRESSVGYRVPAGSGPSLPPMPSLQEVDCGSPSSSEEEGVPGSRGSPATSPHLGRRRPLLRSMSAAFCSLLAPERQVGRAAAALMQDRHTAAGQLVQDLLTQVRAGPEPQELQGIRQALSRARAMLSAELGPEKLLSPKRLEHVLEKSLHCSVLKPLRPILAARLRRRLAADGSLGRLAEGLRLARAQGPGAFGSHLSLPSPVELEQVRQKLLQLLRTYSPSAQVKRLLQACKLLYMALRTQEGEGAGADEFLPLLSLVLAHCDLPELLLEAEYMSELLEPSLLTGEGGYYLTSLSASLALLSGLGQAHTLPLSPVQELRRSLSLWEQRRLPATHCFQHLLRVAYQDPSSGCTSKTLAVPPEASIATLNQLCATKFRVTQPNTFGLFLYKEQGYHRLPPGALAHRLPTTGYLVYRRAEWPETQGAVTEEEGSGQSEARSRGEEQGCQGDGDAGVKASPRDIREQSETTAEGGQGQAQEGPAQPGEPEAEGSRAAEE
B2: ABLIM1 (protein, UniProt O14639 1-778, looked up)
Actin-binding LIM protein 1: MPAFLGLKCLGKLCSSEKSKVTSSERTSARGSNRKRLIVEDRRVSGTSFTAHRRATITHLLYLCPKDYCPRGRVCNSVDPFVAHPQDPHHPSEKPVIHCHKCGEPCKGEVLRVQTKHFHIKCFTCKVCGCDLAQGGFFIKNGEYLCTLDYQRMYGTRCHGCGEFVEGEVVTALGKTYHPNCFACTICKRPFPPGDRVTFNGRDCLCQLCAQPMSSSPKETTFSSNCAGCGRDIKNGQALLALDKQWHLGCFKCKSCGKVLTGEYISKDGAPYCEKDYQGLFGVKCEACHQFITGKVLEAGDKHYHPSCARCSRCNQMFTEGEEMYLQGSTVWHPDCKQSTKTEEKLRPTRTSSESIYSRPGSSIPGSPGHTIYAKVDNEILDYKDLAAIPKVKAIYDIERPDLITYEPFYTSGYDDKQERQSLGESPRTLSPTPSAEGYQDVRDRMIHRSTSQGSINSPVYSRHSYTPTTSRSPQHFHRPGNEPSSGRNSPLPYRPDSRPLTPTYAQAPKHFHVPDQGINIYRKPPIYKQHAALAAQSKSSEDIIKFSKFPAAQAPDPSETPKIETDHWPGPPSFAVVGPDMKRRSSGREEDDEELLRRRQLQEEQLMKLNSGLGQLILKEEMEKESRERSSLLASRYDSPINSASHIPSSKTASLPGYGRNGLHRPVSTDFAQYNSYGDVSGGVRDYQTLPDGHMPAMRMDRGVSMPNMLEPKIFPYEMLMVTNRGRNKILREVDRTRLERHLAPEVFREIFGMSIQEFDRLPLWRRNDMKKKAKLF
B3: NEXN (protein, UniProt Q0ZGT2 1-675, looked up)
Nexilin: MNDISQKAEILLSSSKPVPKTYVPKLGKGDVKDKFEAMQRAREERNQRRSRDEKQRRKEQYIREREWNRRKQEIKEMLASDDEEDVSSKVEKAYVPKLTGTVKGRFAEMEKQRQEEQRKRTEEERKRRIEQDMLEKRKIQRELAKRAEQIEDINNTGTESASEEGDDSLLITVVPVKSYKTSGKMKKNFEDLEKEREEKERIKYEEDKRIRYEEQRPSLKEAKCLSLVMDDEIESEAKKESLSPGKLKLTFEELERQRQENRKKQAEEEARKRLEEEKRAFEEARRQMVNEDEENQDTAKIFKGYRPGKLKLSFEEMERQRREDEKRKAEEEARRRIEEEKKAFAEARRNMVVDDDSPEMYKTISQEFLTPGKLEINFEELLKQKMEEEKRRTEEERKHKLEMEKQEFEQLRQEMGEEEEENETFGLSREYEELIKLKRSGSIQAKNLKSKFEKIGQLSEKEIQKKIEEERARRRAIDLEIKEREAENFHEEDDVDVRPARKSEAPFTHKVNMKARFEQMAKAREEEEQRRIEEQKLLRMQFEQREIDAALQKKREEEEEEEGSIMNGSTAEDEEQTRSGAPWFKKPLKNTSVVDSEPVRFTVKVTGEPKPEITWWFEGEILQDGEDYQYIERGETYCLYLPETFPEDGGEYMCKAVNNKGSAASTCILTIESKN
B4: HNRNPA0 (protein, UniProt Q13151 1-305, looked up)
Heterogeneous nuclear …: MENSQLCKLFIGGLNVQTSESGLRGHFEAFGTLTDCVVVVNPQTKRSRCFGFVTYSNVEEADAAMAASPHAVDGNTVELKRAVSREDSARPGAHAKVKKLFVGGLKGDVAEGDLIEHFSQFGTVEKAEIIADKQSGKKRGFGFVYFQNHDAADKAAVVKFHPIQGHRVEVKKAVPKEDIYSGGGGGGSRSSRGGRGGRGRGGGRDQNGLSKGGGGGYNSYGGYGGGGGGGYNAYGGGGGGSSYGGSDYGNGFGGFGSYSQHQSSYGPMKSGGGGGGGGSSWGGRSNSGPYRGGYGGGGGYGGSSF
B5: PHB (protein, UniProt P35232 2-272, looked up)
Prohibitin 1: AAKVFESIGKFGLALAVAGGVVNSALYNVDAGHRAVIFDRFRGVQDIVVGEGTHFLIPWVQKPIIFDCRSRPRNVPVITGSKDLQNVNITLRILFRPVASQLPRIFTSIGEDYDERVLPSITTEILKSVVARFDAGELITQRELVSRQVSDDLTERAATFGLILDDVSLTHLTFGKEFTEAVEAKQVAQQEAERARFVVEKAEQQKKAAIISAEGDSKAAELIANSLATAGDGLIELRKLEAAEDIAYQLSRSRNITYLPAGQSVLLQLPQ
B6: LMNB1 (protein, UniProt P20700 2-583, looked up)
Lamin-B1: ATATPVPPRMGSRAGGPTTPLSPTRLSRLQEKEELRELNDRLAVYIDKVRSLETENSALQLQVTEREEVRGRELTGLKALYETELADARRALDDTARERAKLQIELGKCKAEHDQLLLNYAKKESDLNGAQIKLREYEAALNSKDAALATALGDKKSLEGDLEDLKDQIAQLEASLAAAKKQLADETLLKVDLENRCQSLTEDLEFRKSMYEEEINETRRKHETRLVEVDSGRQIEYEYKLAQALHEMREQHDAQVRLYKEELEQTYHAKLENARLSSEMNTSTVNSAREELMESRMRIESLSSQLSNLQKESRACLERIQELEDLLAKEKDNSRRMLTDKEREMAEIRDQMQQQLNDYEQLLDVKLALDMEISAYRKLLEGEEERLKLSPSPSSRVTVSRASSSRSVRTTRGKRKRVDVEESEASSSVSISHSASATGNVCIEEIDVDGKFIRLKNTSEQDQPMGGWEMIRKIGDTSVSYKYTSRYVLKAGQTVTIWAANAGVTASPPTDLIWKNQNSWGTGEDVKVILKNSQGEEVAQRSTVFKTTIPEEEEEEEEAAGVVVEEELFHQQGTPRASNRSC
B7: ZAK (protein, UniProt Q9NYL2 2-800, looked up)
Mitogen-activated protein …: SSLGASFVQIKFDDLQFFENCGGGSFGSVYRAKWISQDKEVAVKKLLKIEKEAEILSVLSHRNIIQFYGVILEPPNYGIVTEYASLGSLYDYINSNRSEEMDMDHIMTWATDVAKGMHYLHMEAPVKVIHRDLKSRNVVIAADGVLKICDFGASRFHNHTTHMSLVGTFPWMAPEVIQSLPVSETCDTYSYGVVLWEMLTREVPFKGLEGLQVAWLVVEKNERLTIPSSCPRSFAELLHQCWEADAKKRPSFKQIISILESMSNDTSLPDKCNSFLHNKAEWRCEIEATLERLKKLERDLSFKEQELKERERRLKMWEQKLTEQSNTPLLPSFEIGAWTEDDVYCWVQQLVRKGDSSAEMSVYASLFKENNITGKRLLLLEEEDLKDMGIVSKGHIIHFKSAIEKLTHDYINLFHFPPLIKDSGGEPEENEEKIVNLELVFGFHLKPGTGPQDCKWKMYMEMDGDEIAITYIKDVTFNTNLPDAEILKMTKPPFVMEKWIVGIAKSQTVECTVTYESDVRTPKSTKHVHSIQWSRTKPQDEVKAVQLAIQTLFTNSDGNPGSRSDSSADCQWLDTLRMRQIASNTSLQRSQSNPILGSPFFSHFDGQDSYAAAVRRPQVPIKYQQITPVNQSRSSSPTQYGLTKNFSSLHLNSRDSGFSSGNTDTSSERGRYSDRSRNKYGRGSISLNSSPRGRYSGKSQHSTPSRGRYPGKFYRVSQSALNPHQSPDFKRSPRDLHQPNTIPGMPLHPETDSRASEEDSKVSEGGWTKVEYRKKPHRPSPAKTNKERARGDHRGWRNF
B8: GAPVD1 (protein, UniProt Q14C86 1-1478, looked up)
GTPase-activating protein and …: MVKLDIHTLAHHLKQERLYVNSEKQLIQRLNADVLKTAEKLYRTAWIAKQQRINLDRLIITSAEASPAECCQHAKILEDTQFVDGYKQLGFQETAYGEFLSRLRENPRLIASSLVAGEKLNQENTQSVIYTVFTSLYGNCIMQEDESYLLQVLRYLIEFELKESDNPRRLLRRGTCAFSILFKLFSEGLFSAKLFLTATLHEPIMQLLVEDEDHLETDPNKLIERFSPSQQEKLFGEKGSDRFRQKVQEMVESNEAKLVALVNKFIGYLKQNTYCFPHSLRWIVSQMYKTLSCVDRLEVGEVRAMCTDLLLACFICPAVVNPEQYGIISDAPINEVARFNLMQVGRLLQQLAMTGSEEGDPRTKSSLGKFDKSCVAAFLDVVIGGRAVETPPLSSVNLLEGLSRTVVYITYSQLITLVNFMKSVMSGDQLREDRMALDNLLANLPPAKPGKSSSLEMTPYNTPQLSPATTPANKKNRLPIATRSRSRTNMLMDLHMDHEGSSQETIQEVQPEEVLVISLGTGPQLTPGMMSENEVLNMQLSDGGQGDVPVDENKLHGKPDKTLRFSLCSDNLEGISEGPSNRSNSVSSLDLEGESVSELGAGPSGSNGVEALQLLEHEQATTQDNLDDKLRKFEIRDMMGLTDDRDISETVSETWSTDVLGSDFDPNIDEDRLQEIAGAAAENMLGSLLCLPGSGSVLLDPCTGSTISETTSEAWSVEVLPSDSEAPDLKQEERLQELESCSGLGSTSDDTDVREVSSRPSTPGLSVVSGISATSEDIPNKIEDLRSECSSDFGGKDSVTSPDMDEITHGAHQLTSPPSQSESLLAMFDPLSSHEGASAVVRPKVHYARPSHPPPDPPILEGAVGGNEARLPNFGSHVLTPAEMEAFKQRHSYPERLVRSRSSDIVSSVRRPMSDPSWNRRPGNEERELPPAAAIGATSLVAAPHSSSSSPSKDSSRGETEERKDSDDEKSDRNRPWWRKRFVSAMPKAPIPFRKKEKQEKDKDDLGPDRFSTLTDDPSPRLSAQAQVAEDILDKYRNAIKRTSPSDGAMANYESTGDNHDRDLSSKLLYHSDKEVMGDGESAHDSPRDEALQNISADDLPDSASQAAHPQDSAFSYRDAKKKLRLALCSADSVAFPVLTHSTRNGLPDHTDPEDNEIVCFLKVQIAEAINLQDKNLMAQLQETMRCVCRFDNRTCRKLLASIAEDYRKRAPYIAYLTRCRQGLQTTQAHLERLLQRVLRDKEVANRYFTTVCVRLLLESKEKKIREFIQDFQKLTAADDKTAQVEDFLQFLYGAMAQDVIWQNASEEQLQDAQLAIERSVMNRIFKLAFYPNQDGDILRDQVLHEHIQRLSKVVTANHRALQIPEVYLREAPWPSAQSEIRTISAYKTPRDKVQCILRMCSTIMNLLSLANEDSVPGADDFVPVLVFVLIKANPPCLLSTVQYISSFYASCLSGEESYWWMQFTAAVEFIKTIDDRK

What was measured:
[1] = system: GFP-14-3-3β and its binding proteins; test: GFP-14-3-3β co-IP with LC-MS/MS label-free quantification, untreated versus PP1c-treated; set-up: species or system human
GFP-14-3-3β = GFP-14-3-3β co-IP with LC-MS/MS, untreated GFP-14-3-3β versus GFP control (14-3-3 interactome); format: binding, human
[2] = PP1 vs untreated, LFQ intensities, replicates 1-3
[3] = untreated vs GFP, LFQ intensities, replicates 1-3

Molecule | Difference (log2), PP1 vs untreated [1, 2] | Difference (log2), untreated vs GFP (GFP-14-3-3β; [3]) | Difference (log2), PP1 vs untreated ([1]; log2 difference, pairwise comparison PP1 vs untreated, label-free quantification, 3 replicates each) | Difference (log2), untreated vs GFP (GFP-14-3-3β; log2 difference, pairwise comparison untreated vs GFP, label-free quantification, 3 replicates each)
B1 | -1.475 log2 | 6.141 log2 |  | 
B2 | -1.4799 log2 | 3.166 log2 |  | 
B3 | -1.398 log2 | 0.832 log2 |  | 
B4 | -1.439 log2 | 3.698 log2 |  | 
B5 |  |  | 1.5807 | 1.469
B6 | -1.41 log2 | 2.359 log2 |  | 
B7 | -1.506 log2 | 2.661 log2 |  | 
B8 | -1.38 log2 | 4.189 log2 |  | 

— article PMC7367873, “Dissecting the sequence determinants for dephosphorylation by the catalytic subunits of phosphatases PP1 and PP2A” (Nature Communications, 2020)
